# Patent publication US20170081395A1 (LABRYS BIOLOGICS, published 2017)
# Ends that are not written are not given here.
# Molecular target: T1, antibody G1 Fab fragment
# T1 construct: purified on Ni-NTA (tag not described); also called antibody G1 Fabs
# Experiment: Biacore, 10 uM peptide with 50 nM G1 Fab over human α-CGRP on chip
# T1 sequence (VH, as listed by the source, chain 1 of 2): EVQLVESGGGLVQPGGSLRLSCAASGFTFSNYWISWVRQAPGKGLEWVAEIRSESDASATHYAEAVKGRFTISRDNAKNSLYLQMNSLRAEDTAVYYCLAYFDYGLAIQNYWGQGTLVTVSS
# T1 sequence (VL, as listed by the source, chain 2 of 2): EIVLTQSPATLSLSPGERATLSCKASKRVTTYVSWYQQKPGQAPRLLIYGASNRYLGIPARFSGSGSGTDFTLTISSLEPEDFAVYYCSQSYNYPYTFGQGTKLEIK
row,Binder,% of binding blocked [%]
1,SGGVVKNNFVPTNVGSAAF-NH2 (also: N-terminal biotin when captured on the chip) [human α-CGRP K35A (19-37)],100
2,SGGVVKNNFVPTNVGSEAF-NH2 (also: N-terminal biotin when captured on the chip) [human α-CGRP K35E (19-37)],100
3,"ACDTATCVTHRLAGLLSRSGGVVKNNFVPTNVGSKA-OH (ends and bridges not checked, also called Peptide 1-36 (not amidated at the C-terminus)) [human α-CGRP 1-36-COOH]",~40

# The next lines start with the values.
row,% of binding blocked [%],Binder
1,100,SGGVVKNNFVATNVGSKAF-NH2 [human α-CGRP P29A (19-37)]
2,100,SGGVVKNNFVPTNVGSMAF-NH2 (also: N-terminal biotin when captured on the chip) [human α-CGRP K35M (19-37)]
3,100,"SCNTATCVTHRLAGLLSRSGGVVKDNFVPTNVGSEAF-NH2 (ends and bridges not checked; also: N-terminal biotin when captured on the chip, also called rat α (1-37); α-rat) [rat α-CGRP (1-37)]"
